Assay results taken from patent US20140242093A1, “METHODS AND COMPOSITIONS FOR MODULATING THE INNATE IMMUNE RESPONSE AND/OR MYOGENESIS IN A MAMMALIAN SUBJECT” (FRED HUTCHINSON CANCER RESEARCH CENTER, priority 2011, published 2014).

Test system: control human primary myoblasts
Assay: Expression microarray of primary myoblasts transduced with lentivirus carrying DUX4-fl, DUX4-s or GFP
Protocol: Primary human myoblasts were collected and cultured as previously described (Snider et al., 2010). Primary myoblasts were maintained at or below 70% confluency for proliferation. For differentiation, cells were allowed to reach 95-100% confluency in growth medium. Once confluency was reached, the cells were changed to differentiation medium (F10 media supplemented with 1% horse serum, 10 μg/mL insulin, and 10 μg/mL transferrin, penicillin/streptomycin) and maintained for 4 days. Human RD cells were grown in DMEM in 10% bovine calf serum (Hyclone) and penicillin/streptomycin. The primary myoblasts were transduced with lentivirus carrying DUX-fl, DUX4- or GFP (MOI=15).
Expression microarrays were performed on the transduced cells at 24 hours after transduction as follows. […] Samples were analyzed by Illumina Human Whole Genome microarrays. Probe intensities were corrected, normalized, and summarized by the Lumi package of Bioconductor (Du et al., 2008). Differentially expressed genes were identified by the LIMMA package of Bioconductor (Wettenhall and Smyth, 2004). Gene set enrichment analysis (GSEA) was performed using the Bioconductor GOstats package (Falcon and Gentleman, 2007).

B1: DUX4-s: short splice form of DUX4 (SEQ ID NO:112), keeps the double-homeobox domains, lacks the C-terminal activation domain (protein, listed as Homo sapiens)
chain: MALPTPSDSTLPAEARGRGRRRRLVWTPSQSEALRACFERNPYPGIATRERLAQAIGIPEPRVQIWFQNERSRQLRQHRRESRPWPGRRGPPEGRRKRTAVTGSQTALLLRAFEKDRFPGIAAREELARETGLPESRIQIWFQNRRARHPGQGGRAPAQV
PNMA6B expression fc (Refseq XM_001721351.1): −0.2189 | LOC100133984 expression fc (Refseq XM_001723079.1): −0.03265 | LOC649330 expression fc (Refseq XM_001723218.1): −0.2697 | LOC100128202 expression fc (Refseq XM_001723719.1): −0.1157 | LOC100130311 expression fc (Refseq XM_001724111.1): 0.1436 | LOC100131539 expression fc (Refseq XM_001724873.1): 0.06524 | LOC100134006 expression fc (Refseq XM_001725030.1): −0.02089 | LOC730167 expression fc (Refseq XM_001726158.1): 1.257 | LOC100129681 expression fc (Refseq XM_001726834.1, cultured human skeletal muscle): 0.5189 | LOC651709 expression fc (Refseq XM_001732813.1): 0.09445 | LOC727828 expression fc (Refseq XR_015137.1): −0.00556 | LOC728060 fc (Refseq XR_015272.2): 0.2553 | LOC732393 expression fc (Refseq XR_015873.1): 0.03683 | MGC40489 expression fc (Refseq XR_016048.1): −0.4604 | LOC643263 expression fc (Refseq XR_016355.1): −0.133 | LOC441081 expression fc (Refseq XR_017029.1): 0.06023 | LOC647366 expression fc (Refseq XR_018122.1): −0.003339 | LOC440041 expression fc (Refseq XR_018122.2): 0.021 | LOC647827 expression fc (Refseq XR_018213.1): −0.05208 | LOC399988 expression fc (Refseq XR_018287.2): −0.4131 | LOC650215 fc (Refseq XR_018889.1): 0.6386 | fc of RBMS2P (expression array) (Refseq XR_019556.2): 1.313 | LOC642148 expression fc (Refseq XR_019607.1): 0.1352 | LOC650236 expression fc (Refseq XR_036872.1): −0.05945 | LOC100134322 expression fc (Refseq XR_037416.1): 0.1962 | LOC730974 expression fc (Refseq XR_037751.1): 0.02384 | LOC643445 expression fc (Refseq XR_038080.1): 0.07882 | LOC729516 expression fc (Refseq XR_038445.1): −0.00369 | LOC340970 expression fc (Refseq XR_038494.1): 0.03296 | LOC645381 expression fc (Refseq XR_038557.1): −0.1266 | LOC728429 expression fc (Refseq XR_038921.1): −0.02834 | LOC645638 fc (Refseq XR_040455.1): −0.07113 | LOC400464 expression fc (Refseq XR_041115.1): −0.07853 | TRIM53 expression fc (Refseq XR_041244.1): 0.07913 | LOC729009 expression fc (Refseq XR_042330.1, cultured human skeletal muscle): 0.6634 | ABCC3 expression fc (cultured human skeletal muscle): 0.1349 | ADM expression fc (cultured human skeletal muscle): 0.6367 | AGTRAP expression fc (cultured human skeletal muscle): 0.6152 | AHNAK expression fc (cultured human skeletal muscle): 0.163 | ANGPTL2 expression fc (cultured human skeletal muscle): −0.7837 | ANKFY1 expression fc (cultured human skeletal muscle): 0.09409 | APOL3 expression fc (cultured human skeletal muscle): 0.9777 | ARHGEF19 expression fc (cultured human skeletal muscle): 0.1103 | ARID3A expression fc (cultured human skeletal muscle): 0.2867 | ASNS expression fc (cultured human skeletal muscle): 0.7133 | ATF5 expression fc (cultured human skeletal muscle): 0.5025 | ATL3 expression fc (cultured human skeletal muscle): 1.352 | BHLHB2 expression fc (cultured human skeletal muscle): 0.6222 | BTG2 expression fc (cultured human skeletal muscle): −0.1242 | BTN3A2 expression fc (cultured human skeletal muscle): 0.3356 | BTN3A3 expression fc (cultured human skeletal muscle): 0.4019 | C1RL expression fc (cultured human skeletal muscle): −0.1589 | C4orf18 expression fc (cultured human skeletal muscle): −0.5109 | C8orf13 expression fc (cultured human skeletal muscle): 0.4235 | C14orf4 expression fc (cultured human skeletal muscle): 0.05349 | C18orf56 expression fc (cultured human skeletal muscle): 0.2126 | CA9 expression fc (cultured human skeletal muscle): 0.5237 | CABC1 expression fc (cultured human skeletal muscle): −0.1757 | CABYR expression fc (cultured human skeletal muscle): −0.04313 | CCDC8 expression fc (cultured human skeletal muscle): −0.09225 | CEBPD expression fc (cultured human skeletal muscle): 0.1596 | CLDN15 expression fc (cultured human skeletal muscle): −0.3718 | CNTNAP1 expression fc (cultured human skeletal muscle): 0.1486 | COL8A1 expression fc (cultured human skeletal muscle): 0.469 | CRISPLD2 expression fc (cultured human skeletal muscle): −0.45 | CSF3 expression fc (cultured human skeletal muscle): 0.8126 | CYGB expression fc (cultured human skeletal muscle): 0.157 | CYP26B1 expression fc (cultured human skeletal muscle): 0.4149 | CYP27A1 expression fc (cultured human skeletal muscle): −0.0598 | DAB2 expression fc (cultured human skeletal muscle): 0.1092 | DCN expression fc (cultured human skeletal muscle): 0.2641 | DDB2 expression fc (cultured human skeletal muscle): 0.1073 | DDIT4 expression fc (cultured human skeletal muscle): 0.346 | DDX60L expression fc (cultured human skeletal muscle): 0.6578 | DKFZp451A211 expression fc (cultured human skeletal muscle): 0.3087 | DNAJB2 expression fc (cultured human skeletal muscle): −0.01635 | DUSP10 expression fc (cultured human skeletal muscle): −0.3659 | ERAP2 expression fc (cultured human skeletal muscle): 0.7658 | ESPNL expression fc (cultured human skeletal muscle): −0.2957 | FADS1 expression fc (cultured human skeletal muscle): 0.4186 | FAM110B expression fc (cultured human skeletal muscle): −0.7651 | FAM175A expression fc (cultured human skeletal muscle): 0.2667 | FHL2 expression fc (cultured human skeletal muscle): −0.08794 | FILIP1L expression fc (cultured human skeletal muscle): 0.06528 | FKBP5 expression fc (cultured human skeletal muscle): −0.1027 | FOXQ1 expression fc (cultured human skeletal muscle): 0.6403 | FPR1 expression fc (cultured human skeletal muscle): 0.9327 | FST expression fc (cultured human skeletal muscle): 0.9107 | FUCA1 expression fc (cultured human skeletal muscle): 0.2909 | GALK1 expression fc (cultured human skeletal muscle): −0.5288 | GALNTL2 expression fc (cultured human skeletal muscle): 0.9881 | GAS1 expression fc (cultured human skeletal muscle): 0.007049 | GBP4 expression fc (cultured human skeletal muscle): 2.337 | GFPT2 expression fc (cultured human skeletal muscle): 0.04945 | GPX8 expression fc (cultured human skeletal muscle): −0.3321 | GRINA expression fc (cultured human skeletal muscle): 0.4683 | GSDMD expression fc (cultured human skeletal muscle): 0.5738 | HAS2 expression fc (cultured human skeletal muscle): 0.691 | HCG4 expression fc (cultured human skeletal muscle): 0.6838 | HES4 expression fc (cultured human skeletal muscle): 1.068 | HLA-C expression fc (cultured human skeletal muscle): 0.6015 | HLA-H expression fc (cultured human skeletal muscle): 0.327 | HOXC6 expression fc (cultured human skeletal muscle): −0.1927 | ID3 expression fc (cultured human skeletal muscle): −0.07117 | IDH3B expression fc (cultured human skeletal muscle): 0.07117 | IFIT5 expression fc (cultured human skeletal muscle): −0.2831 | IFITM2 expression fc (cultured human skeletal muscle): 0.006726 | IGFBP5 expression fc (cultured human skeletal muscle): 0.178 | IHPK3 expression fc (cultured human skeletal muscle): −0.09089 | IL32 expression fc (cultured human skeletal muscle): 0.06112 | IMPA2 expression fc (cultured human skeletal muscle): −0.3411 | IRAK2 expression fc (cultured human skeletal muscle): 0.5116 | IRAK3 expression fc (cultured human skeletal muscle): 1.053 | ISCU expression fc (cultured human skeletal muscle): 0.03975 | ITPRIP expression fc (cultured human skeletal muscle): 0.5516 | KIAA1618 expression fc (cultured human skeletal muscle): −0.2961 | KLF6 expression fc (cultured human skeletal muscle): 0.6419 | KRT17 expression fc (cultured human skeletal muscle): 0.4585 | LAP3 expression fc (cultured human skeletal muscle): 1.402 | LIMA1 expression fc (cultured human skeletal muscle): 0.2565 | LOC387763 expression fc (cultured human skeletal muscle): 0.2048 | LOC389386 expression fc (cultured human skeletal muscle): 1.37 | LOC392437 expression fc (cultured human skeletal muscle): 0.113 | LOC653879 expression fc (cultured human skeletal muscle): 0.3261 | LOC728431 expression fc (cultured human skeletal muscle): 0.4549 | MAMDC2 expression fc (cultured human skeletal muscle): −0.02851 | MAOA expression fc (cultured human skeletal muscle): −0.3759 | MCEE expression fc (cultured human skeletal muscle): −0.341 | MGC16121 expression fc (cultured human skeletal muscle): 0.01304 | MIOS expression fc (cultured human skeletal muscle): 0.1238 | MLPH expression fc (cultured human skeletal muscle): 0.4233 | MMP3 expression fc (cultured human skeletal muscle): 0.2839 | MOCOS expression fc (cultured human skeletal muscle): 0.4177 | MOV10 expression fc (cultured human skeletal muscle): 0.6869 | MSC expression fc (cultured human skeletal muscle): 0.2529 | MSI2 expression fc (cultured human skeletal muscle): 1.327 | MT1A expression fc (cultured human skeletal muscle): −0.1212 | MT2A expression fc (cultured human skeletal muscle): 0.08469 | MUC1 expression fc (cultured human skeletal muscle): 0.3508
